Measured values: paper PMC9666535

Target: PCNA N107C labeled with Cy5 (human) (UniProt P12004)
Assay: native gel or EMSA; protein-protein EMSA in solution, no DNA: 1 nM PCNA-Cy5 with increasing Polδ Exo^− or Lig1, 20 min at RT, 6% non-denaturing TBE-PAGE; bound PCNA fitted to a quadratic isotherm

PCNA N107C labeled with Cy5 (human), sequence (P12004 whole entry N107C): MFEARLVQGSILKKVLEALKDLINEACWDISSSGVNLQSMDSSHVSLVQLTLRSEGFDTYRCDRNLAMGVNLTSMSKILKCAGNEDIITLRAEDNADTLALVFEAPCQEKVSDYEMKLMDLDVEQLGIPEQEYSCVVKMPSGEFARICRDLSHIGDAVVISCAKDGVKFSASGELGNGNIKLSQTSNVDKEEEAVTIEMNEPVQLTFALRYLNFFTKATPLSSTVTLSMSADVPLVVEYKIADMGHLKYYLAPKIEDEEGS

Substance: Polδ Exo^− (D515V in p125) (from UniProt P28340 1-1107; Q9HCU8 1-107) (complex)
- Kd: 15 nM
